B1: TRIM55 (parent)
chain: YKSFSKEQQTMDNLEKQLICPICL
B2: TRIM55 (parent)
chain: ICPICLEMFTKPVVILPCQHNLCR

Variants of: B1
Test: protein stability index of a GFP-peptide fusion (GPS, HEK-293T) (PSI 1-6); higher = more stable
Settings: c terminus: a fixed tail appended
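Note: lentivirally expressed fusions sorted by FACS into six bins by GFP to DsRed ratio, PSI derived from sequencing read proportions per bin multiplied by bin number.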

Protein stability index of substitutions, site by site:
I22: M 2.31 | T 2.55 | Y 2.55 | R 3.81 | Q 2.03 | N 3.48 | A 2.23 | P 2.7 | G 2.9 | L 2.18 | F 2.21 | E 2.93 | K 2.9 | S 2.75 | C 2.66 | D 2.78 | H 2.15 | V 1.96
Q17: W 2.31 | E 2.32 | R 2.22 | A 1.79 | Y 2.02 | T 1.98 | F 2.59 | S 1.72 | K 2.32 | P 1.68 | G 2.16 | I 1.65 | N 1.89 | L 2 | M 1.48 | D 2.76 | C 2.12 | V 2.01 | H 2.23
C20: R 2.11 | I 1.62 | Y 2.03 | P 2.86 | V 1.78 | H 2.27 | L 2.29 | S 2.4 | W 1.85 | A 1.54 | M 1.82 | D 2.51 | Q 2.05 | G 2.52 | K 1.88 | N 2.42 | E 3.21 | F 2.22 | T 2.44
E15: W 1.45 | T 2.9 | V 1.27
K16: C 1.82 | H 2.89 | F 2.14 | Y 1.67 | I 1.42 | P 2.57 | G 2.08 | R 2.03 | V 1.76 | W 1.88 | A 1.8 | E 1.68 | Q 1.83 | N 2.07 | L 1.68 | S 1.81 | D 2.33 | M 2.15 | T 2.23
L24: H 2.5 | D 2 | Y 2.88 | K 2.63 | G 2.46 | W 2.37 | F 2.15 | I 2.7 | Q 2.22 | A 1.92 | P 3.03 | R 2.31 | S 2.13 | C 2.07 | T 1.98 | M 2.33 | N 2.46 | E 2.13
L18: W 1.95 | G 2.84 | Q 2.08 | T 2.54 | F 2.55 | E 3.19 | S 2.49 | I 2.31 | C 3.72 | K 2.48 | N 2.96 | Y 2.18 | P 2.87 | R 3.17 | A 2.81 | M 2.62 | D 2.98 | H 2.75 | V 3.42
I19: R 2.63 | Q 2.81 | D 2.56 | P 2.29 | G 2.8 | E 3.01 | A 1.99 | W 1.51 | K 2.55 | F 2.09 | S 2.37 | T 2.76 | N 2.71 | V 2.06 | H 2.25 | M 1.88 | L 1.96 | Y 2.02
C23: D 3.64 | Q 3.13 | K 3.13 | W 1.65 | F 2.04 | M 1.66 | I 1.93 | H 2.19 | T 2 | G 2.67 | S 2.6 | V 1.7 | N 3.15 | Y 2.04 | P 1.86 | L 1.72 | R 2.37 | A 2.29 | E 2.85
P21: L 1.67 | G 2.21 | N 1.24 | W 2.53 | S 3.16 | Q 2.4 | A 1.66 | F 1.74 | R 1.35 | D 1.07 | Y 3.21 | V 2.08 | T 1.77 | K 2.07

Variants of: B2
Test: as above
Settings: c terminus: a fixed tail appended

Protein stability index: each site, then its substitutions
I1: A 2.56

From the supplement of paper PMC10567573
